Reference: patent publication US20220315654A1

Target: recombinant cynomolgus monkey PD-L1 soluble protein (biotinylated) (cynomolgus monkey) (UniProt G7PSE7)
Assay: sandwich ELISA: antibody captured on coated anti-human Fc, biotinylated recombinant cynomolgus PD-L1 titrated (x axis, nM), streptavidin-HRP/Amplex red fluorescence

recombinant cynomolgus monkey PD-L1 soluble protein (biotinylated) (cynomolgus monkey), sequence (G7PSE7 entry or part of it limits assumed): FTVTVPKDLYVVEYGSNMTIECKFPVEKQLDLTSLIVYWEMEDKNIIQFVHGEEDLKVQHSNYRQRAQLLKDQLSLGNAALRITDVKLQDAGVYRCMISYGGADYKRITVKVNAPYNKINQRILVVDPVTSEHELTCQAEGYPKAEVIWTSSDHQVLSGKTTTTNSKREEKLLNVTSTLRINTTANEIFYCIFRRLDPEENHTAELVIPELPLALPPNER
Avelumab (antibody), sequence (VH): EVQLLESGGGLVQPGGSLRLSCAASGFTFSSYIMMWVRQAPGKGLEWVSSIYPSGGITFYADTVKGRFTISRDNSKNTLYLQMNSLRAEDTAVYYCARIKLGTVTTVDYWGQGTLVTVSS
Avelumab (antibody), sequence (VL): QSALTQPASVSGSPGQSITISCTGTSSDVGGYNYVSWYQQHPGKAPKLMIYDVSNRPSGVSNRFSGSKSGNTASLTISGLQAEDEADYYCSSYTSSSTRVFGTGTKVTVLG

EC50 (read off the curve): 0.05 nM
Substance: Avelumab (antibody)
